In patent publication US20120052569:

How the values were obtained:
[1] = target: His-eTEV-Fn fusion protein, Ala mutant G11, P02751
[2] = target: His-eTEV-Fn fusion protein, Ala mutant N3, P02751
[3] = target: His-eTEV-Fn fusion protein, Ala mutant F6, P02751
[4] = target: His-eTEV-Fn fusion protein (wild type), P02751
[5] = target: His-eTEV-Fn fusion protein, Ala mutant K9, P02751
[6] = target: His-eTEV-Fn fusion protein, Ala mutant G8, P02751
[7] = target: His-eTEV-Fn fusion protein, Ala mutant E2, P02751
Sequence of His-eTEV-Fn fusion protein, Ala mutant E2, P02751 (P02751 whole entry, looked up, change not shown, the tested form may be a part): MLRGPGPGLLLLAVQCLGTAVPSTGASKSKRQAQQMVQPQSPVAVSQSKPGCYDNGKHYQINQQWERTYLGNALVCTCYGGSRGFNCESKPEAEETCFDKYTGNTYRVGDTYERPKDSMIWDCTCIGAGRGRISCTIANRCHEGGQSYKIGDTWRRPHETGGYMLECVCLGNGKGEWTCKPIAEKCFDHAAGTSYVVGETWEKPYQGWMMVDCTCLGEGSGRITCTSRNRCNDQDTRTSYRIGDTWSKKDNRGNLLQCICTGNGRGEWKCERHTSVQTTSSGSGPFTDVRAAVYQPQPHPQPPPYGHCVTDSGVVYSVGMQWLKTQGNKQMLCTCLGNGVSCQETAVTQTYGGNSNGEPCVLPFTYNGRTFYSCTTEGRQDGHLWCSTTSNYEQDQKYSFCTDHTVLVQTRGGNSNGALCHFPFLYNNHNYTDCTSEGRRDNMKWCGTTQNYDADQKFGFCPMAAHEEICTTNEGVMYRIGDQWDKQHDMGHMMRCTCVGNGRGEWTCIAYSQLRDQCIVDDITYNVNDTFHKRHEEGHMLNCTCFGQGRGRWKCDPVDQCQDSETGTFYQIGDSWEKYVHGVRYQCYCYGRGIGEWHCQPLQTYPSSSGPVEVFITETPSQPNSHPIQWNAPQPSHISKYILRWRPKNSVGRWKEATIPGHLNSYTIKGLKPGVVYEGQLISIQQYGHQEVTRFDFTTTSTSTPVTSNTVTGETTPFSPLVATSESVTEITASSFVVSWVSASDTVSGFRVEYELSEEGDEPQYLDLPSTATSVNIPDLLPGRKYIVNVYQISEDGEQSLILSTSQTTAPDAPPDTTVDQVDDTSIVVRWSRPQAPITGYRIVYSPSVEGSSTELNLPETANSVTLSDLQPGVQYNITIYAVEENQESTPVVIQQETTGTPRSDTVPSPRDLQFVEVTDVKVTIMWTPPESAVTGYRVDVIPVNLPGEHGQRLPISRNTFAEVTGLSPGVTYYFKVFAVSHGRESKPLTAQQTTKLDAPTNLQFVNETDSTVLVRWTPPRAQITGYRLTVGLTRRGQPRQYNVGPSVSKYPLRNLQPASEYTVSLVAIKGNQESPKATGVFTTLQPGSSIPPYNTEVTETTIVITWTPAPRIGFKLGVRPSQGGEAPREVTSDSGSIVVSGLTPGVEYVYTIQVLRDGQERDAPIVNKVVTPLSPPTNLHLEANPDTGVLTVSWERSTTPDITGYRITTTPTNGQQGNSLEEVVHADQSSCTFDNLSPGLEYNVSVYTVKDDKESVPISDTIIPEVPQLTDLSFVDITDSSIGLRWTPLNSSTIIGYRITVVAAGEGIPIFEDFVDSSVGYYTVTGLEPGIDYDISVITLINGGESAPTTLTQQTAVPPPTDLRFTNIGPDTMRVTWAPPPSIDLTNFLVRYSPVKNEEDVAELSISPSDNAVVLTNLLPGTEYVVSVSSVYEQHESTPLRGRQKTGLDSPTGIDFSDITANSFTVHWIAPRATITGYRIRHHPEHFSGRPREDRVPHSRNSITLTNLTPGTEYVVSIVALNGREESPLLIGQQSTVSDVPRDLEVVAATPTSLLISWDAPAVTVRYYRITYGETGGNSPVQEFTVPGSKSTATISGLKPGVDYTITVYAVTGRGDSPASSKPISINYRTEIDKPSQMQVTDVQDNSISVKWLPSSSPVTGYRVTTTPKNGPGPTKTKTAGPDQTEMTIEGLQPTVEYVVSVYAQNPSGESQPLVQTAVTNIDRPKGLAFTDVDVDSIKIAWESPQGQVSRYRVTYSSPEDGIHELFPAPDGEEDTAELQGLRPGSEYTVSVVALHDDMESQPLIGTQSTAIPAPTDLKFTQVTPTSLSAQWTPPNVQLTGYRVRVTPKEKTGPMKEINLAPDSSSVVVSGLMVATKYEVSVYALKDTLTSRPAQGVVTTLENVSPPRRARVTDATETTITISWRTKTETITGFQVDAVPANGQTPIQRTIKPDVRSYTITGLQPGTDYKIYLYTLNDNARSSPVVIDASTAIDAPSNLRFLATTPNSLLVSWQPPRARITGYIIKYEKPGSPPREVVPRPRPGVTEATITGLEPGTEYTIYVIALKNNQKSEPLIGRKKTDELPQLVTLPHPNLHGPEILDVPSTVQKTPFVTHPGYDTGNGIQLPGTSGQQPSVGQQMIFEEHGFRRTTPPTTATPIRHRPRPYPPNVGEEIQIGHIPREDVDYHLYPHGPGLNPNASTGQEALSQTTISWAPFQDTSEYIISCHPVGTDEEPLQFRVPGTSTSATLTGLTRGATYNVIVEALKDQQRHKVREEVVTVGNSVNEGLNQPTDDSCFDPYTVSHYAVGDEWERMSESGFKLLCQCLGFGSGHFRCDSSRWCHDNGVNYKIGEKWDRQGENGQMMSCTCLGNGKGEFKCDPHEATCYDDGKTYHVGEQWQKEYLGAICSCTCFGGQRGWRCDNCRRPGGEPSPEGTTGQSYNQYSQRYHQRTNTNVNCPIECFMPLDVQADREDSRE

[8] = target: His-eTEV-Fn fusion protein, Ala mutant Y5, P02751
Sequence of His-eTEV-Fn fusion protein, Ala mutant Y5, P02751 (P02751 whole entry, looked up, change not shown, the tested form may be a part): as above

[9] = target: His-eTEV-Fn fusion protein, Ala mutant R1, P02751
Sequence of His-eTEV-Fn fusion protein, Ala mutant R1, P02751 (P02751 whole entry, looked up, change not shown, the tested form may be a part): as above

[10] = target: His-eTEV-Fn fusion protein, Ala mutant Q7, P02751
Sequence of His-eTEV-Fn fusion protein, Ala mutant Q7, P02751 (P02751 whole entry, looked up, change not shown, the tested form may be a part): as above

[11] = target: His-eTEV-Fn fusion protein, Ala mutant L4, P02751
Sequence of His-eTEV-Fn fusion protein, Ala mutant L4, P02751 (P02751 whole entry, looked up, change not shown, the tested form may be a part): as above

W tag fused GFPUV = target: T1, W tag fused GFPUV
T1 chain: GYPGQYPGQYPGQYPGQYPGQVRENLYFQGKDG

[12] = target: His-eTEV-Fn fusion protein, Ala mutant M0, P02751
Sequence of His-eTEV-Fn fusion protein, Ala mutant M0, P02751 (P02751 whole entry, looked up, change not shown, the tested form may be a part): as the sequence (P02751 whole entry, looked up, change not shown, the tested form may be a part) above

[13] = target: His-eTEV-Fn fusion protein, Ala mutant D10, P02751
Sequence of His-eTEV-Fn fusion protein, Ala mutant D10, P02751 (P02751 whole entry, looked up, change not shown, the tested form may be a part): as the sequence (P02751 whole entry, looked up, change not shown, the tested form may be a part) above

Sequence of His-eTEV-Fn fusion protein, Ala mutant F6, P02751 (P02751 whole entry, looked up, change not shown, the tested form may be a part): as the sequence (P02751 whole entry, looked up, change not shown, the tested form may be a part) above
Sequence of His-eTEV-Fn fusion protein, Ala mutant K9, P02751 (P02751 whole entry, looked up, change not shown, the tested form may be a part): as the sequence (P02751 whole entry, looked up, change not shown, the tested form may be a part) above
Sequence of His-eTEV-Fn fusion protein, Ala mutant G11, P02751 (P02751 whole entry, looked up, change not shown, the tested form may be a part): as the sequence (P02751 whole entry, looked up, change not shown, the tested form may be a part) above
Sequence of His-eTEV-Fn fusion protein, Ala mutant G8, P02751 (P02751 whole entry, looked up, change not shown, the tested form may be a part): as the sequence (P02751 whole entry, looked up, change not shown, the tested form may be a part) above
Sequence of His-eTEV-Fn fusion protein, Ala mutant N3, P02751 (P02751 whole entry, looked up, change not shown, the tested form may be a part): as the sequence (P02751 whole entry, looked up, change not shown, the tested form may be a part) above
Sequence of His-eTEV-Fn fusion protein (wild type), P02751 (P02751 other isoform, or with tags, fused parts or gaps): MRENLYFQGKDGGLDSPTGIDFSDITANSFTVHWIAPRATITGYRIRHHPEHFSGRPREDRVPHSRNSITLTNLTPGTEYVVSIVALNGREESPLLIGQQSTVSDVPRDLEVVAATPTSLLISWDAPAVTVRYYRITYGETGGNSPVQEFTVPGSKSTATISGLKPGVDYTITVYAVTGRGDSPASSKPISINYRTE

B1: Tobacco etch virus (TEV) protease (protein)
chain: GESLFKGPRDYNPISSTICHLTNESDGHTTSLYGIGFGPFIITNKHLFRRNNGTLLVQSLHGVFKVKNTTTLQQHLIDGRDMIIIRMPKDFPPFPQKLKFREPQREERICLVTTNFQTKSMSSMVSDTSCTFPSSDGIFWKHWIQTKDGQCGSPLVSTRDGFIVGIHSASNFTNTNNYFTSVPKNFMELLTNQEAQQWVSGWRLNADSVLWGGHKVFMSKPEEPFQPVKEATQLMNELVYSQ
For B1, the “cleavage by TEV protease (SDS electrophoresis, 24 kDa to 20 kDa shift)” value [1] was “the other residues are substitutable with Ala”, the “cleavage by TEV protease (SDS electrophoresis, 24 kDa to 20 kDa shift)” value [2] was “the other residues are substitutable with Ala” and the “cleavage by TEV protease (SDS electrophoresis, 24 kDa to 20 kDa shift)” value [3] was “the other residues are substitutable with Ala”. For the same protein, the “cleavage by TEV protease (SDS electrophoresis, 24 kDa to 20 kDa shift)” value [4] was “The eTEV peptide is recognized and cleaved by TEV protease”, the “cleavage by TEV protease (SDS electrophoresis, 24 kDa to 20 kDa shift)” value [5] was “the other residues are substitutable with Ala” and the “cleavage by TEV protease (SDS electrophoresis, 24 kDa to 20 kDa shift)” value [6] was “the other residues are substitutable with Ala”. For the same protein, the “cleavage by TEV protease (SDS electrophoresis, 24 kDa to 20 kDa shift)” value [7] was “substitution of Ala for Glu at residue 2 gives no significant change in cleavage”, the “cleavage by TEV protease (SDS electrophoresis, 24 kDa to 20 kDa shift)” value [8] was “the 4th, 5th and 7th amino acids (namely, Leu, Tyr and Gln) are essential for the substrate of TEV protease” and the “cleavage by TEV protease (SDS electrophoresis, 24 kDa to 20 kDa shift)” value [9] was “the other residues are substitutable with Ala”. For the same protein, the “cleavage by TEV protease” value (W tag fused Fn, P02751) was “the above-mentioned W tag fusion proteins, like single tag fusion proteins, can be used ... for cleavage by TEV protease”, the “cleavage by TEV protease (SDS electrophoresis, 24 kDa to 20 kDa shift)” value [10] was “the 4th, 5th and 7th amino acids (namely, Leu, Tyr and Gln) are essential for the substrate of TEV protease” and the “cleavage by TEV protease (SDS electrophoresis, 24 kDa to 20 kDa shift)” value [11] was “the 4th, 5th and 7th amino acids (namely, Leu, Tyr and Gln) are essential for the substrate of TEV protease”. For the same protein, the “cleavage by TEV protease” value (W tag fused GFPUV) was “the above-mentioned W tag fusion proteins, like single tag fusion proteins, can be used ... for cleavage by TEV protease”, the “cleavage by TEV protease (SDS electrophoresis, 24 kDa to 20 kDa shift)” value [12] was “the other residues are substitutable with Ala” and the “cleavage by TEV protease (SDS electrophoresis, 24 kDa to 20 kDa shift)” value [13] was “the other residues are substitutable with Ala”.
